The source of these data is publication PMC4795164.

Substrate in this series: N[C@@H](CSSC[C@H](N)C(=O)O)C(=O)O
Description: purified protein. It counts as biochemical, Homo sapiens. Particulars: 100 µM AdoMet, 50 µM PLP, 100 mM HEPES pH 7.4, 37 °C.

B1: human CBS (cystathionine beta-synthase) (Homo sapiens) (protein)
chain: MPSETPQAEVGPTGCPHRSGPHSAKGSLEKGSPEDKEAKEPLWIRPDAPSRCTWQLGRPASESPHHHTAPAKSPKILPDILKKIGDTPMVRINKIGKKFGLKCELLAKCEFFNAGGSVKDRISLRMIEDAERDGTLKPGDTIIEPTSGNTGIGLALAAAVRGYRCIIVMPEKMSSEKVDVLRALGAEIVRTPTNARFDSPESHVGVAWRLKNEIPNSHILDQYRNASNPLAHYDTTADEILQQCDGKLDMLVASVGTGGTITGIARKLKEKCPGCRIIGVDPEGSILAEPEELNQTEQTTYEVEGIGYDFIPTVLDRTVVDKWFKSNDEEAFTFARMLIAQEGLLCGGSAGSTVAVAVKAAQELQEGQRCVVILPDSVRNYMTKFLSDRWMLQKGFLKEEDLTEKKPWWWHLRVQELGLSAPLTVLPTITCGHTIEILREKGFDQAPVVDEAGVILGMVTLGNMLSSLLAGKVQPSDQVGKVIYKQFKQIRLTDTLGRLSHILEMDHFALVVHEQIQYHSTGKSSQRQMVFGVVTAIDLLNFVAAQERDQK
For orientation: Km means the substrate concentration at which the rate is half of its maximum. A word on the Vmax: it is the rate approached at saturating substrate. In general, kcat refers to the number of substrate molecules converted per active site and unit of time at saturation. The kcat/Km is the second-order rate constant that governs catalysis at low substrate concentration. B1: the Km stood at 1300 ± 100 µM, the Vmax is 0.102 µmol/min/mg, the turnover number (kcat) stood at 0.11 s⁻¹ and the kcat/Km is 85 M⁻¹ s⁻¹.
